The values below come from paper PMC10376177.

What all share (assay): native gel or EMSA
Background: Mobility shift assays separate free from complexed probe on a gel.

Assay [1] addresses CthedisKatG W90F (Chaetomium thermophilum var. dissitum).
In assay [2] the target is CthedisKatG W90V (Chaetomium thermophilum var. dissitum).
The target of assay [3] is CthedisKatG, thermophilic catalase–peroxidase from Chaetomium thermophilum var. dissitum (wild type) (Chaetomium thermophilum var. dissitum).

In general, stoichiometry N refers to a count of units in the complex or per binding partner. For CthedisKatG W90F (enzyme), the stoichiometry N in assay [1] was determined as 2. In assay [2], CthedisKatG W90V (enzyme) yielded a stoichiometry N of 2. In assay [3], “CthedisKatG, thermophilic catalase–peroxidase from Chaetomium thermophilum var. dissitum (wild type) (enzyme)” gave a stoichiometry N of 2.
